Measurements as given in the DeepSol protein solubility set.

Assay: soluble on expression in E. coli; label from the status in PepcDB or PDB records

Sequence | soluble on expression in E. coli
MKKQKSFPMSAYEDLLGKITAPTITVENWEGILAFCDMINNDFEGSKTGIKSLRKRLNNRDPHVVLLAISVLDSCWANCEERFRKEVSSAQFINELKALCTSSQRQVAEKMRLTVQKWVDTECKTEQSLSLIVTLHKNLVADGYSFVVDDPKSKTKAIDAKFANDPNYVGSAQEEEAIAKAIAASLADAEKQEKAKKSTSTMYPSAKASSPAVQTNSNIPEKNVRALYDFEAAESNELSFVAGDIITITDESNPHWWTGRIGTQQGLFPSSFVTNQLDDLKSKETDSSQKAPEVVASINEAILVRCLQVLHECDPTGERQDPEDLAQLEAASYAQGNLIDAHLASIDRQSNSLAQIDVAIRDVLALYDDAIQKGGFQHQSQGMYQQPMQQYNYQQPPNRAYYPPTGPVQQQQPQQYPPQHYPAPGAQPQYACPPNSVPQPQQQQQQWPAPSSQPQQY | not soluble
MSSKVSPLAPTDVPAMPMIAGVRLATAAAGIRYKGRTDVLLVEMEKGTTVAGVFTTSKCASAPVEWCRDKLKGGSARALVVNSGNANAFTGKSGKQAATLTAQLAAKAIGCKPAEVFLASTGVIGEPLDATKFDGVLDALALDAGPDGWMDAAKAIMTTDTFPKVATATVKLGKAKVTINGMAKGAGMIAPDMATMLSFIFTDAPLSASCLQALLKAGVTDTFNAVTIDGDTSTSDTLLAFATGAAAENGAPKISRASDPRLKAFVKAFNAVLADLAEQVARDGEGARKLVEIIVEGAKTKVSARKIALSIANSPLVKTAIAGEDANWGRVVMAVGKAGEPADRDKLSISFNGIRVAKAGARDPSYNEKEVSAEMKKPVIQIKVALGLGKGRDRVLTCDLTKEYVAINGDYRSLEHHHHHH | not soluble
MGHHHHHHSHMVKFKVIALAALMGISGMAAQANELPDGPHIVTSGTASVDAVPDIATLAIEVNVAAKDAATAKKQADERVAQYISFLELNQIAKKDISSANLRTQPDYDYQDGKSILKGYRAVRTVEVTLRQLDKLNSLLDGALKAGLNEIRSVSLGVAQPDAYKDKARKAAIDNAIHQAQELANGFHRKLGPVYSVRYHVSNYQPSPMVRMMKADAAPVSAQETYEQAAIQFDDQVDVVFQLEPVDQQPAKTPAAQ | soluble
MSLAHYKKFRLSTLAAVVGIVLAVGPENSYAEAPIQFNTRFLDVKDDASLDLSRFSRKGYIMPGSYHLQVLVNQSQIVQDNVITYSVDNNDPDNTYPCLSPELVSLLGLKPEIADKMIWINAGQCLQPDQLEGMETQTDLSQSTLTVIIPQAYLEYSDEEWDPPSRWDEGIPGVLFDYNVNSQWRHAEHDDGDEYDISGNGTVGANLGAWRLRADWQANYRHENDSEDKDNFGSSSEQNWDWNRYYAWRAIPQLRAQLTLGEGSLESDIFDGFNYVGGSLITDDQMLPPNLRGYAPDISGVARTNAKVTVTQRGRVIYESQVPAGPFRIQDINETVSGDLHVKIEEQSGQVQEYDVSTASIPFLTRPGQVRYKLAAGRPQDWDHNMEGGFFTSAEASWGIANGWSLYGGAIGEQDYQALALGLGRDLALLGAFSVDVTHSRATLPEGSAYGDGTIQGNSFRASYAKDFDDIDSRLTFAGYRFSEENYMTMDEFIDTHNDDNDRQRTGHDKEMYTLTYSQNFSAINVNAYINYTHRTYWNQPNQDSYNLTLSHYFDVGEVRGISLSVNGFRNEYDNERDDGVYVSLSIPWGNNRTLSYNGSFSDDNNSNQVGYYERIDDRNNYQINAGRADNGATLDGYYRYQASYADIDVSANYQEGDYTSGGLNIQGGATLTAKGGALHRTSVNGGSRLLVDVGDEANVPISGYSTPVYTNAFGKAVIVDVNDYYRNQVKIDITQLPEDAEAILSIAQATLTEGAIGYRRMEVLSGKKAMASIRLRDGGTPPFGAEVYNSRQQQLGIVGEDGSVYLIGINPGERLQVTWEGKTQCEATLPDPLPGDLFSGLLLPCIGDASSPEATQPEEKPLLQLHTQRRTSSTQPEALSSRYPTHEGGSHHHHHH | soluble
MKTKNKILHANCLQLGGKGLLIIGPSGSGKSTLTLSLLDRAGWSKREAKLISDDYTMLRVENGKLQGSTPEGLQGGIEIRGVGLYTIEFEKQTTIDCVILLGPEYERFSTNQTFKFADLHIPLLKLPSLHEADCTAICQAIEAFFFRKVWLKSV | not soluble
MGSDKIHHHHHHMKKKYVTIRDIAEKAGVSINTVSRALNNKPDISEETRRKILKIAQELGYVKNATASSLRSKQTNIVGVIIADSANPFYAEVLKGIEAASRKYGYQIMLMNTERIYENEEKAIEVLLQRRVDGLLITPVQDRSDDIKTLIERKVPFVIVGRHFEELEVDEIHSDEVKGGYLATRHLIERGRKNIIMISGYLFKSAAYMRLEGYRKALKEYGIPFSEKMIIETDIDIESGYRAMREAIEKGLEFEAVFCYNDLLAFGVIKALKECGYRIPEDVAVVGYDDIVYSSFICPSLTTVRIKKFEMGFEAFRMLLQRLKGRRKKRKRVILDVELVVRESG | not soluble
MLEKNPTLEKLLKSLEDIQAIDIKIIDVHKQTTITDFMVVTSGRSSRHVKSIAQKVLEDMKVAGLPCLSSTGIEHGDWALIDFGDIILHVMQPEFRHFYNLEGLWEEHPGNSLEHHHHHH | not soluble
MDEHFIKIHKWLYPVSWIYGAVVTVRNKLFDWGFLRSKSFGVPVICIGNLSVGGTGKTPHTEYLIKLLRDNYHVAVLSRGYKRHSRGYVLATPQSTARSIGDEPYQMHTKFPSVTLAVDENRCHGIEQLLSIKEPSIEVVLLDDAFQHRYVKPGLSILLTDYHRLFCDDTLLPAGRLRESVNGKNRAQIVIVTKCPQDIKPIDYNIITKRLNLYPYQQLYFSSFRYGNLQPVFPSANSEIDSTVNELPLSALTNTDILLVTGIASPAPILEELKMYTDQIDSLSFDDHHHFSHRDIQQIKERFGKLKGEHKLIVTTEKDATRLIHHPVLSEELKPFIYALPIEIEILQNQQDKFNQHIIGYVRENTRNSSFSERENAHQSLEHHHHHH | soluble
MGHHHHHHSHGDAAPEALEFEYDLAEPPEKVWRALTVPELLAAWMMPNDIRPEIGNRFAFAGTEAAIECEILDAEPERLLRYSWRQQPGDAARQDPLDSVVTFTLARTVSGGTHLRIVHDGFGGKAMPAVAMASG | not soluble
MTVGLGMPQPPAPTLAPRRATRQLMVGNVGVGSDHPVSVQSMCTTKTHDVNSTLQQIAELTAAGCDIVRVACPRQEDADALAEIARHSQIPVVADIHFQPRYIFAAIDAGCAAVRVNPGNIKEFDGRVGEVAKAAGAAGIPIRIGVNAGSLDKRFMEKYGKATPEALVESALWEASLFEEHGFGDIKISVKHNDPVVMVAAYELLAARCDYPLHLGVTEAGPAFQGTIKSAVAFGALLSRGIGDTIRVSLSAPPVEEVKVGNQVLESLNLRPRSLEIVSCPSCGRAQVDVYTLANEVTAGLDGLDVPLRVAVMGCVVNGPGEAREADLGVASGNGKGQIFVRGEVIKTVPEAQIVETLIEEAMRLAAEMGEQDPGATPSGSPIVTVS | soluble
MTLSTINPMKKSRIDNIHHTQILFFSDENQIDQEAPYYDALLDLEKDYPEQIDKMKVYDKKEGWEDEIETVPTLMVVDQRHVVVKIEGCVKKKEDIIKPLQHVLSKLEHHHHHH | not soluble
MGSDKIHHHHHHMDDAMVSAVTCGAVMAFDRNIWIEKFLENSVPSFPCPHCSRGVLGFDGKSFWKEEPKHSKDAHAHDDWDPTWIEERFVMFLRCGVAKCGEVVAVSGNIEVEEVVDEDEGYDFASVLYPTSLVPAPPIIQMTDGTPDEVAGELSLAFQLFWADLGASATKIRTSVERLMDHFKVARYSRTKGKLKPIPLYNRIEAFIKANGKVVHQDHLHALRVVGNLGTHKNSLTRSDILEAFQVYEHALDELIGKKSASIAKLARKLKKK | not soluble
MSEQYTTGVVVTGKVTGIQDYGAFVALDAETQGLVHISEITNGYVKDIHDFLKVGDTVEVKVLSIDEEHRKMSLSLKAAKRKQGRILIPNPSENGFNTLREKLTEWIEESELTK | not soluble
MSMEDPFFVVKGEVQKAVNTAQGLFQRWTELLQGPSAATREEIDWTTNELRNNLRSIEWDLEDLDETISIVEANPRKFNLDATELSIRKAFITSTRQIVRDMKDQMSASS | soluble
MGSDKIHHHHHHMADTAPQLKRKREQEAEEAETPSTEEKEAGVGNGTSAPVRLPFSGFRVQKVLRESARDKIIFLHGKVNEDSGDTHGEDAVVILEKTPFQVEHVAQLLTGSPELKLQFSNDIYSTYNLFPPRHLSDIKTTVVYPATEKHLQKYMRQDLRLIRETGDDYRTITLPYLESQSLSIQWVYNILDKKAEADRIVFENPDPSDGFVLIPDLKWNQQQLDDLYLIAICHRRGIRSLRDLTPEHLPLLRNILREGQEAILKRYQVTGDRLRVYLHYLPSYYHLHVHFTALGFEAPGSGVERAHLLAQVIENLECDPKHYQQRTLTFALRTDDPLLQLLQKAQQERN | soluble
MKPLSSAIAAALILFSAQGVAEQTTQPVVTSCANVVVVPPSQEHPPFDLNHMGTGSDKSDALGVPYYNQHAM | soluble
MGSDKIHHHHHHMSRNRPAPSGDQFDLFLPYVADMPMRDQREMMERPFFSLAKSKRVKPIDYTSPDGKLWVHVSGNPDYGMATIWDADILIYCASVLADMARRGVNDVPRKLHLMPYDLLRAIGRPTTGRAYELLGQALDRLVATTIKTNIRAENRREATFSWLDGWTQLVDEKTERSRGMTIELSNWFWEGVMMKGGVLSIDRAYFDITGGRERWLYKVARKHAGGAGEEGFAISMPVLFEKSGAEGEYRRFKFEILKLAEKNALPGYGLSVETARGGEPMLRMRRVDGKDGADRALPEAGRQGAEARTVASTAPDVSPGKHSSGASETVDVRALIRKTVAGVSDAATRGFMTDETIRHLRETCPGWDLHALHAEFESWVNGDSARLPANWQKAFIGWVKRHHEKNGHALRR | not soluble
LSNGQGSRVLHVVQTLYPFSSVTEEELNFEKGETMEVIEKPENDPEWWKCKNARGQVGLVPKNYVVVLSDGPALHPAH | soluble
QTNSPASIPHLILELLKCEPDEPQVQAKIMAYLQQEQSNRNRQEKLSAFGLLCKMADQTLFSIVEWARSSIFFRELKVDDQMKLLQNCWSELLILDHIYRQVAHGKEGTIFLVTGEHVDYSTIISHTEVAFNNLLSLAQELVVRLRSLQFDQREFVCLKFLVLFSSDVKNLENLQLVEGVQEQVNAALLDYTVCNYPQQTEKFGQLLLRLPELRAISKQAEDYLYYKHVNGDVPYNNLLIEMLHAKRA | soluble
MAHHHHHHMGGYIGYNLVYNQQASVSQALWSREDEDVAPVSMPVRPRVALVNMTENLRSCAMGGLRAWLDVADEVELEFPTVTFVEDDEAGAIAGLAAEVRRAALFAWVELKERHEMDAPFGVKPLCCVVFRSITEVDGQALDAWDVQEVELRRWHGKRFVTRHCVGASVDGKRAMVLMHDVEGVIDVGPAAALAGGRVSDCGALVRQYGAPSTASFRRWKLSAEAQSSSTPVQPPAKSLQGLGIRLRDGQRCQLWQSPLHIFAALGAVLRYNRADAAVYPNHITTPVPVSQSASAVSASLWGCVKEWALRCTPTLLHWYTARQAERMERQRQLSSTFVVVVRLAEERAAVTSDVLRVVEEHVAEWMRDMNGASPMKTSLSTANRVCVRDAAARPEELMAAPTIQVDLTDTVCSVIAAEWLLIRLTSLFAALGLEPALAQLVAVPGPQASTSLLYPTPNTAHLRHLWLSRSATTSSSTITDNDAKSPRVTWSGRTTQGEHIAGCAATMPIEAGYVVSEHYFSAF | not soluble
